Data published in patent US20060024313A1, “Agents that disrupt dimer formation in DPP-IV family of prolyl dipeptidases” (priority 2004, published 2006).
Substitutions are numbered along the chain they refer to. Numbers in names are those of the source. Where “and” joins values, the source holds several entries; their conditions need not be identical. Equal entries are not always repeated. Entries after “also recorded” stand apart in the source; their conditions may differ. Marks after values point to notes of the source that are not given here.

How the values were obtained:
[1] = Analytical ultracentrifugation (AUC): sedimentation velocity and equilibrium; type: physicochemical; conditions: for quaternary structure (monomer/dimer) by AUC: PBS buffer where stated; for quaternary structure (subunit composition) by sedimentation velocity: High salt buffer (0.5 M sodium sulfate); for Stokes' radius (Rs): sedimentation velocity experiments
Description: Buffer was changed using an Amicon device and DPP-IV proteins were allowed to equilibrate for at least four hours or longer as indicated in the text at 25° C. after buffer changes. The sedimentation coefficients (S) of the enzyme were estimated by a Beckman-Coulter XL-A analytical ultracentrifuge with an An60Ti rotor as described (25). Sedimentation velocity analysis was performed at 40,000 rpm at 25° C. with standard double sector aluminum centerpieces. The UV absorption of the cells was scanned every 5 min for 4 hours. Sedimentation equilibrium was performed at 20° C. with six-channel open centerpieces and then centrifuged at 12,000 rpm for 12 hours. The data from both sedimentation velocity and sedimentation experiments were analyzed with the SedFit version 8.7 program to obtain molecular weights and sedimentation coefficients (25). Sednterp version 1.07 program is used to obtain solvent density, viscosity, Stokes' radius (Rs) and anhydrous frictional ratio (f/fo).

[2] = test system: DPP-IV; assay: Kinetic constant measurements with chromogenic substrate H-Gly-Pro-pNA; type: biochemical, human; conditions: for AUC analysis or catalytic activities in low salt buffer: low salt buffer compared to PBS buffer (data not shown)
Description: To measure the kinetic parameters, the chromogenic substrate H-Gly-Pro-pNA was utilized to initiate the reaction, which was monitored at OD 405 nm as a function of time (21). […] The initial rate was measured with less than 10% substrate depletion for the first 10 to 300 seconds. The steady-state parameters, kcat and Km, were determined from initial velocity measurements at 0.5 to 5 Km of the substrate concentrations. Lineweaver-Burk plots were analyzed using non-linear regression of the Michaelis-Menten equation. Correlation coefficients better than 0.99 were obtained throughout.

[3] = Size exclusion chromatography (gel filtration, Superdex 200); type: physicochemical; conditions: gel filtration experiments; PBS buffer
Description: Chemical crosslinking in intact cells was conducted as described (24). Size exclusion chromatography was conducted at 4° C. Purified proteins (0.5 ml at a concentration of 5 uM) were applied to a Superdex 200 10/30 column (10×300-310 mm) pre-equilibrated with PBS. The sample was eluted with the same buffer at 0.3 ml/min and 0.25 ml fractions were collected. The Superdex 200 10/30 column was calibrated with the Stokes Radii of ferritin (6.1 nm), catalase (5.22 nm), aldolase (4.81 nm), albumin (3.55 nm), ovalbumin (3.05 nm) and chymotrypsinogen A (2.09 nm) from Amersham-Pharmacia.

[4] = test system: DPP-IV; assay: Dilution experiment (specific activity after two-fold dilutions); type: biochemical, human; conditions: 200 nM to 1.6 nM enzyme, 16 hours at 25° C., 10 uM H-Gly-Pro-pNA
Description: Enzyme concentrations ranging from 200 nM to 1.6 nM were used in the dilution experiments. The experiments were carried out with consecutive two-fold dilutions in PBS containing 0.1% BSA and 1 mM DTT (dithiothreitol). The solution after dilution was incubated at 25° C. for 16 hours to ensure attainment of dimer-monomer equilibrium. The reaction was initiated by adding the substrate H-Gly-Pro-pNA at a final concentration of 10 uM for both wild type DPP-IV and H750A proteins. The initial rate of the reaction was recorded and converted to specific activity.

[5] = High salt buffer, substrate H-Gly-Pro-pNA
[6] = PBS buffer, substrate H-Gly-Pro-pNA
[7] = compared with wild type rDPP-IV
[8] = Table III, monomer form of the mutant
[9] = values in text, monomeric mutants
[10] = Table III, dimer form of the mutant

B1: DPP 8: member of the DPP-IV family of prolyl dipeptidases (protein)
chain: MAAAMETEQLGVEIFETADCEENIESQDRPKLEPFYVERYSWSQLKKLLADTRKYHGYMMAKAPHDFMFVKRNDPDGPHSDRIYYLAMSGENRENTLFYSEIPKTINRAAVLMLSWKPLLDLFQATLDYGMYSREEELLRERKRIGTVGIASYDYHQGSGTFLFQAGSGIYHVKDGGPQGFTQQPLRPNLVETSCPNIRMDPKLCPADPDWIAFIHSNDIWISNIVTREERRLTYVHNELANMEEDARSAGVATFVLQEEFDRYSGYWWCPKAETTPSGGKILRILYEENDESEVEIIHVTSPMLETRRADSFRYPKTGTANPKVTFKMSEIMIDAEGRIIDVIDKELIQPFEILFEGVEYIARAGWTPEGKYAWSILLDRSQTRLQIVLISPELFIPVEDDVMERQRLIESVPDSVTPLIIYEETTDIWINIHDIFHVFPQSHEEEIEFIFASECKTGFRHLYKITSILKESKYKRSSGGLPAPSDFKCPIKEEIAITSGEWEVLGRHGSNIQVDEVRRLVYFEGTKDSPLEHHLYVVSYVNPGEVTRLTDRGYSHSCCISQHCDFFISKYSNQKNPHCVSLYKLSSPEDDPTCKTKEFWATILDSAGPLPDYTPPEIFSFESTTGFTLYGMLYKPHDLQPGKKYPTVLFIYGGPQVQLVNNRFKGVKYFRLNTLASLGYVVVVIDNRGSCHRGLKFEGAFKYKMGQIEIDDQVEGLQYLASRYDFIDLDRVGIHGWSYGGYLSLMALMQRSDIFRVAIAGAPVTLWIFYDTGYTERYMGHPDQNEQGYYLGSVAMQAEKFPSEPNRLLLLHGFLDENVHFAHTSILLSFLVRAGKPYDLQIYPQERHSIRVPESGEHYELHLLHYLQENLGSRIAALKVI
quaternary structure (monomer/dimer) by AUC [1]: is a dimer; also recorded: exists as a dimer

B2: H750A: DPP-IV mutant, H750 mutated to Ala; mixture of dimer and monomer (protein)
chain: SRKTYTLTDYLKNTYRLKLYSLRWISDHEYLYKQENNILVFNAEYGNSSVFLENSTFDEFGHSINDYSISPDGQFILLEYNYVKQWRHSYTASYDIYDLNKRQLITEERIPNNTQWVTWSPVGHKLAYVWNNDIYVKIEPNLPSYRITWTGKEDIIYNGITDWVYEEEVFSAYSALWWSPNGTFLAYAQFNDTEVPLIEYSFYSDESLQYPKTVRVPYPKAGAVNPTVKFFVVNTDSLSSVTNATSIQITAPASMLIGDHYLCDVTWATQERISLQWLRRIQNYSVMDICDYDESSGRWNCLVARQHIEMSTTGWVGRFRPSEPHFTLDGNSFYKIISNEEGYRHICYFQIDKKDCTFITKGTWEVIGIEALTSDYLYYISNEYKGMPGGRNLYKIQLSDYTKVTCLSCELNPERCQYYSVSFSKEAKYYQLRCSGPGLPLYTLHSSVNDKGLRVLEDNSALDKMLQNVQMPSKKLDFIILNETKFWYQMILPPHFDKSKKYPLLLDVYAGPCSQKADTVFRLNWATYLASTENIIVASFDGRGSGYQGDKIMHAINRRLGTFEVEDQIEAARQFSKMGFVDNKRIAIWGWSYGGYVTSMVLGSGSGVFKCGIAVAPVSRWEYYDSVYTERYMGLPTPEDNLDHYRNSTVMSRAENFKQVEYLLIHGTADDNVHFQQSAQISKALVDVGVDFQAMWYTDEDHGIASSTAHQAIYTHMSHFIKQCFSLP
Km [2, 5]: 125 µM
kcat [2, 5]: 16 s⁻¹
Km [2, 6]: 77 µM
kcat [2, 6]: 31 s⁻¹
decrease in kcat [2, 7]: about 3 fold
AUC analysis or catalytic activities in low salt buffer [2]: no differences
Stokes' radius (Rs) [3]: 5.7 nm and 4.6 nm
quaternary structure (subunit composition) by sedimentation velocity [1]: mixture of dimer-monomer
quaternary structure (monomer/dimer) by AUC [1]: mixture of DPP-IV dimer and monomer
subunit composition of separated dimer and monomer after incubation ([1]; room temperature for up to 48 hours, after gel filtration): maintain their subunit compositions
specific activity on dilution [4]: constant

B3: H750A dimer: dimer of H750A DPP-IV separated by gel filtration (protein)
chain: B2 chain
Km [2, 6]: 79 µM
kcat [2, 6]: 73 s⁻¹
Stokes' radius (Rs) [3]: 5.7^a nm
Sedimentation coefficient (s20, w) ([1]; High salt buffer): 5.0 S
Anhydrous frictional ratio (f/fo) ([1]; PBS buffer): 1.4
Sedimentation coefficient (s20, w) ([1]; PBS buffer): 8.5 S and 8.4 S
Stokes' radius (Rs) ([1]; High salt buffer): 4.9^b nm
Stokes' radius (Rs) ([1]; PBS buffer): 5.1^b nm

B4: 734A: DPP-IV C-terminal loop mutant, W734 substituted with Alanine (protein)
chain: B2 chain with W696A, A712H
Km [2, 8]: 90.5 µM
kcat [2, 8]: 0.3 s − 1
quaternary structure (monomer/dimer) by AUC [1]: monomers

B5: F713R: DPP-IV mutant, F713 substituted with Arginine (protein)
chain: B2 chain with F675R, A712H
Km [2, 9]: 784 µM
kcat [2, 9]: 2.3 S^−1
quaternary structure (monomer/dimer) by AUC [1]: monomeric DPP-IV; also recorded: monomers

B6: H750A monomer: monomer of H750A DPP-IV separated by gel filtration (protein)
chain: B2 chain
Km [2, 6]: 64 µM
kcat [2, 6]: 1.4 s⁻¹
decrease in kcat [2, 7]: 60 fold
Stokes' radius (Rs) [3]: 4.6^a nm
Sedimentation coefficient (s20, w) ([1]; High salt buffer): 3.3 S
Anhydrous frictional ratio (f/fo) ([1]; PBS buffer): 1.3
Sedimentation coefficient (s20, w) ([1]; PBS buffer): 5.5 S
Stokes' radius (Rs) ([1]; High salt buffer): 3.7^b nm
Stokes' radius (Rs) ([1]; PBS buffer): 4.1^b nm

B7: 713A: DPP-IV C-terminal loop mutant, F713 substituted with Alanine (protein)
chain: B2 chain with F675A, A712H
Km [2, 8]: 50.1 µM
kcat [2, 8]: 1.8 s − 1
Km [2, 9]: 51 µM
kcat [2, 9]: 1 S^−1
quaternary structure (monomer/dimer) by AUC ([1]; listed as F713A): monomers; also recorded: monomeric DPP-IV

B8: H750E: DPP-IV mutant, H750 mutated to Glu; monomer (protein)
chain: B2 chain with A712E
Km [2, 5]: 1090 µM
kcat [2, 5]: 2.1 s⁻¹
Km [2, 6]: 956 µM
kcat [2, 6]: 2.6 s⁻¹
decrease in kcat [2, 7]: 30 fold
increase in Km [2, 7]: 10 fold
AUC analysis or catalytic activities in low salt buffer [2]: no differences
Stokes' radius (Rs) [3]: 4.6 nm and 4.6^a nm
Sedimentation coefficient (s20, w) ([1]; High salt buffer): 3.3 S
quaternary structure (subunit composition) by sedimentation velocity [1]: monomer
Anhydrous frictional ratio (f/fo) ([1]; PBS buffer): 1.3
Sedimentation coefficient (s20, w) ([1]; PBS buffer): 5.5 S
quaternary structure (monomer/dimer) by AUC [1]: consists only of monomer; also recorded: nearly exclusive monomers
Stokes' radius (Rs) ([1]; High salt buffer): 3.7^b nm
Stokes' radius (Rs) ([1]; PBS buffer): 4.0^b nm

B9: 724A: DPP-IV C-terminal loop mutant, V724 substituted with Alanine (protein)
chain: B2 chain with V686A, A712H
Km [2, 10]: 87.5 µM
kcat [2, 10]: 48.3 s − 1
Km [2, 8]: 76.4 µM
kcat [2, 8]: 0.5 s − 1
quaternary structure (monomer/dimer) by AUC [1]: mixture with both monomers and dimers

B10: 730A: DPP-IV C-terminal loop mutant, F730 substituted with Alanine (protein)
chain: B2 chain with F692A, A712H
Km [2, 10]: 56.3 µM
kcat [2, 10]: 27.9 s − 1
Km [2, 8]: 53.7 µM
kcat [2, 8]: 0.2 s − 1
quaternary structure (monomer/dimer) by AUC [1]: mixture with both monomers and dimers

B11: 735A: DPP-IV C-terminal loop mutant, Y735 substituted with Alanine (protein)
chain: B2 chain with Y697A, A712H
Km [2, 8]: 88.6 µM
kcat [2, 8]: 0.05 s − 1
quaternary structure (monomer/dimer) by AUC [1]: monomers

B12: Y248A: DPP-IV propeller loop mutant, Y248 substituted with Alanine (protein)
chain: B2 chain with Y210A, A712H
Km [2, 9]: 7 µM
kcat [2, 9]: 0.01 S^−1
quaternary structure (monomer/dimer) by AUC [1]: resulted in monomers; also recorded: monomer
